Like-named read-outs stand apart in the source and are kept apart here.
What was measured:
[1] = target: head fiber gp14 of phage P68 (S. aureus phage P68); test: cryo-EM structure
[2] = target: portal protein gp19 of phage P68 (S. aureus phage P68); test: cryo-EM structure
[3] = target: lower collar protein gp18 of phage P68 (S. aureus phage P68); test: cryo-EM structure
[4] = target: tail fiber gp17 of phage P68 (in the virion) (S. aureus phage P68); test: cryo-EM structure
[5] = target: tail fiber protein gp17 of phage P68 (protein used for crystallization) (S. aureus phage P68); test: crystal structure

Substance: head fiber gp14 of phage P68 (natural protein)
- stoichiometry N [1]: 3 subunits

Substance: inner core protein gp22 of phage P68 (natural protein)
- stoichiometry N ([2]; scale: inner core proteins for each portal protein): 6

Substance: lower collar protein gp18 of phage P68 (natural protein)
- stoichiometry N [3]: 12 subunits

Substance: portal protein gp19 of phage P68 (natural protein)
- stoichiometry N [2]: 12 subunits

Substance: tail fiber gp17 of phage P68 (in the virion) (natural protein)
- stoichiometry N [4]: 3 subunits

Substance: tail fiber protein gp17 of phage P68 (protein used for crystallization) (natural protein)
- stoichiometry N [5]: 3 subunits
